Experimental data published in article PMC8054679.
Read-outs that look alike come from different tables or passages of the source. One block for each binder: values may come before it.

Columns and labels:
Assay in all cases: split reporter
SmBiT-CHIP [1] = molecular target: SmBiT-CHIP
SmBiT-CHIP-FLAG = molecular target: SmBiT-CHIP-FLAG
SmBiT-CHIP K30A = molecular target: SmBiT-CHIP K30A
SmBiT-CHIP [2] = molecular target: SmBiT-CHIP; remark: listed apart in the source

Sequence of SmBiT-CHIP (Q9UNE7 whole entry): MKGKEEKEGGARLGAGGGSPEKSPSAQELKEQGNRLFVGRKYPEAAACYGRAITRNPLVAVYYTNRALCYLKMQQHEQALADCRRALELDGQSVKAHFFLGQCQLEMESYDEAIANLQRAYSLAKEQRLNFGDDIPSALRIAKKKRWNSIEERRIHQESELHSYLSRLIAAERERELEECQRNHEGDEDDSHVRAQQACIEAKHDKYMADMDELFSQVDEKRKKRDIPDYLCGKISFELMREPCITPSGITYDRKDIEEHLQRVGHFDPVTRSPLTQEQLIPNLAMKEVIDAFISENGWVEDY
Sequence of SmBiT-CHIP-FLAG (Q9UNE7 whole entry): as above

fold increase in luminescence over the negative control (SmBiT-CHIP [1]): 300 fold
B1: LgBiT-LWWPD (peptide)
chain: GGSGLWWPD

luminescence with dox (SmBiT-CHIP-FLAG): 47300 RLU
B2: myc-LgBiT-IEEVD (peptide)
chain: GGSGIEEVD

fold increase in luminescence over the negative control (SmBiT-CHIP K30A): 97 fold | fold increase in luminescence over the negative control (SmBiT-CHIP [1]): 180 fold | fold increase in luminescence over the negative control (SmBiT-CHIP [2]): 160 to 180 fold
B3: LgBiT-IEEVD (peptide)
chain: GGSGIEEVD
